Measurements as given in patent publication US11730743B2, “Protection of cells from degeneration and treatment of geographic atrophy” (University of Kentucky Research Foundation, priority 2012, dated 2023).

Experiments:
Caspase-1 = target: T1, Caspase-1 (Homo sapiens, UniProt P29466); assay: Caspase-1 activation in cultured cells (western blot p20, Caspalux1 substrate cleavage); format: cell-based; settings: human RPE cells
T1 construct: endogenous in cells; host or cells: primary human RPE cells; also THP-1 and HeLa cells
T1 sequence (P29466 120-297 limits assumed): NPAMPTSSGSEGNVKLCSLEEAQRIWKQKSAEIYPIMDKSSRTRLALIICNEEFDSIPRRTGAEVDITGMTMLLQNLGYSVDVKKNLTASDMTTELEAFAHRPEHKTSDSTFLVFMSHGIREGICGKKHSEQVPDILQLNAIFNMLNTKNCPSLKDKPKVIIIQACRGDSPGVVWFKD
T1 sequence (P29466 317-404 limits assumed): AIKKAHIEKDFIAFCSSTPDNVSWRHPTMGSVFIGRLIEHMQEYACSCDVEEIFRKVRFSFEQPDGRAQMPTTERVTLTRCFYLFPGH
Protocol: Protein abundance and activity. Protein abundance was assessed by Western blot analysis using primary antibodies recognizing Caspase-1 (1:500; Invitrogen), pIRAK1 (1:500; Thermo Scientific), pIRAK4 (1:500, Abbomax, Inc), PYCARD (1:200, Santa Cruz Biotechnology), NLRP3 (1:500, Enzo Life Sciences) and Vinculin (1:1,000; Sigma-Aldrich). Caspase-1 activity was visualized using Caspalux1 E1D2 (OncoImmunin) reagent according to the manufacturer's instructions.
Western blotting. Tissues or cells were homogenized in lysis buffer (10 mM Tris base, pH 7.4, 150 mM NaCl, 1 mM EDTA, 1 mM EGTA, 1% Triton X-100, 0.5% NP-40, protease and phosphatase inhibitor cocktail (Roche)). Protein concentrations were determined using a Bradford assay kit (Bio-Rad) with bovine serum albumin as a standard. Proteins (40-100 μg) were run on NuPAGE Bis-Tris gels (Invitrogen) and transferred to Immun-Blot PVDF membranes (Bio-Rad). Cells were scraped in hot Laemmli buffer (62.5 mM Tris base, pH 6.8, 2% SDS, 5% 2-Mercaptoethanol, 10% Glycerol, 0.01% Bromophenol Blue). Samples were boiled and run on 4-20% NuPAGE Tris-Glycine gels (Invitrogen). The transferred membranes were blocked for 1 h at RT and incubated with antibodies against human Caspase-1 (1:500; Invitrogen), mouse Caspase1 (1:500; MBL), NLRP3 (1:1000; Enzo Life Sciences), PYCARD (1:1000, RayBiotech), phospho-IRAK1 (S376) (1:500, Thermo Scientific), phospho-IRAK4 (T345) (1:500, AbboMax), DICER1 (1:2,000; Bethyl), MyD88 (1:1,000; Cell Signaling), and mouse IL-18 (1:200; MBL) at 4° C. overnight. Protein loading was assessed by immunoblotting using an anti-Vinculin antibody (1:1,000; Sigma-Aldrich). The secondary antibodies were used (1:5,000) for 1 h at RT. […]
Caspase-1 activity. […] Caspalux1E1D2 signal was quantified reading the fluorescence (excitation 552 nm, emission 580 nm) using a Synergy 4 reader (Biotek). Quantification of fluorescence from images was performed by converting images into grayscale in Adobe Photoshop CS5, and measuring the integrated density of black and white images using ImageJ software (NIH) (Bogdanovich et al., 2008).

Dicer1f/f mice = assay: RPE degeneration induced by subretinal AAV1-BEST1-Cre (DICER1 loss); format: in vivo; settings: inhibitor intravitreous
Protocol: Immunolabeling. Human eyes fixed in 2-4% paraformaldehyde were prepared as eyecups, cryoprotected in 30% sucrose, embedded in optimal cutting temperature compound (Tissue-Tek OCT; Sakura Finetek), and cryosectioned into 10 μm sections. Depigmentation was achieved using 0.25% potassium permanganate and 0.1% oxalic acid. Immunohistochemical staining was performed with the rabbit antibody against NLRP3 (1:100, Sigma Aldrich) or rabbit antibody against Caspase-1 (prediluted, AbCam). Isotype IgG was substituted for the primary antibody to assess the specificity of the staining. Bound antibody was detected with biotin-conjugated secondary antibodies, followed by incubation with ABC reagent and visualized by Vector Blue (Vector Laboratories). Levamisole (Vector Laboratories) was used to block endogenous alkaline phosphatase activity. Slides were washed in PBS, counterstained with neutral red (Fisher Scientific), rinsed with deionized water, air dried, and then mounted in Vectamount (Vector Laboratories). Fluorescent labeling of human tissue was performed with the rabbit antibody against PYCARD (1:50, Clone N-15, Santa Cruz Biotechnology). Immunolabeling was visualized by fluorescently conjugated anti-rabbit secondary antibody (Invitrogen). Tissue autofluorescence was quenched by incubating the sections in 0.3% Sudan black (Fisher Scientific). […]

Substance: MyD88 inhibitory peptide: peptide inhibitor of MyD88 homodimerization IMG-2005 (IMGENEX)
- Alu RNA-induced fluorescent substrate cleavage (Caspase-1 activity) (Caspase-1; Caspalux1): did not reduce
- Alu RNA-induced Caspase-1 cleavage (p20 subunit) (Caspase-1; western blot): did not reduce
- AAV1-BEST1-Cre-induced RPE degeneration (Dicer1f/f mice): blocked
